Here are results for 4 molecules from patent US20220281931A1 (published 2022).

The labels stand for the following.
B3: SIAH1^SBD (tag-cleaved) (enzyme, human, UniProt Q8IUQ4 90-282, looked up)
chain: VANSVLFPCKYASSGCEITLPHTEKADHEELCEFRPYSCPCPGASCKWQGSLDAVMPHLMHQHKSITTLQGEDIVFLATDINLPGAVDWVMMQSCFGFHFMLVLEKQEKYDGHQQFFAIVQLIGTRKQAENFAYRLELNGHRRRLTWEATPRSIHEGIATAIMNSDCLVFDTSIAQLFAENGNLGINVTISMC
notes: range 90-282; also called recombinant SIAH1^SBD

Test [1] deals with T1, eGFPBCL6^1-275 (human, UniProt P41182 1-275).
T1 construct: Expressed in HEK293T Cas9 cells; also called eGFPBCL6^275; minimal degradable construct; not shown: eGFP
As to the kind of experiment: immunofluorescence colocalization in HEK293T cells, 1 µM BI-3802.

For test [2], the target named is T2, eGFPBCL6^FL 249-251 VSP>GSA (human, UniProt P41182 1-706).
T2 construct: Expressed in HEK293T Cas9 cells; also called BCL6 V×P motif mutant; not shown: eGFP
The test is described as follows: co-immunoprecipitation (GFP-trap) from HEK293T cells, BI-3802 or DMSO. The procedure: (§1) The cells were harvested and lysed in RIPA lysis buffer (ThermoFisher Scientific, #89900) infused with protease inhibitor (ThermoFisher Scientific, Halt™ Protease Inhibitor Cocktail #78438) for 30 min at 4° C. […] Lysates were cleared by centrifugation (17,000 g, 20 min, 4° C.). 20 μL of pre-cleaned GFP-trap magnetic agarose beads (Chromotek, gmta-20) was added to the lysates. The beads-lysate mix was incubated at 4° C. for 30 min. Proteins were eluted in 2×sample buffer at 98° C. Eluates and whole-cell lysates were run on a polyacrylamide gel, transferred to a nitrocellulose membrane and immunoblotted for eGFP and V5.

The target of test [3] is T3, eGFPBCL6^1-250 (human, UniProt P41182 1-250).
T3 construct: Expressed in HEK293T Cas9 cells; also called eGFPBCL6^250; non-degradable eGFPBCL6^1-250 construct; not shown: eGFP
Described as above. The procedure: as §1

Test [4] addresses B3. The test is described as follows: isothermal titration calorimetry, peptide injected into SIAH1^SBD. The procedure:
(§2) All calorimetric experiments were carried out using an Affinity ITC from TA Instruments (New Castle, Del.) equipped with auto sampler in a buffer containing 20 mM HEPES, pH 7.5, 150 mM NaCl, and 0.5 mM TCEP at 25° C. For the BCL6-SIAH1 interaction, 25 μM BCL6⁵⁻³⁶⁰ protein solution in the calorimetric cell was titrated by injecting 2 μL of 250 μM SIAH1^SBD protein solution in 200 sec intervals with stirring speed at 125 rpm. […] Resulting isotherm was fitted with a single site model to yield thermodynamic parameters of DH, DS, stoichiometry, and Kd using NanoAnalyze software (TA instruments).
On the technique in general: In ITC the heat of successive injections is recorded.

Test [5] addresses T4, BodipyFL-labeled BCL6^5-360 (human, UniProt P41182 5-360, BodipyFL label (site not stated)).
T4 construct: also called BodipyBCL6^5-360; BodipyFL-BCL6^5-360
The test is described as follows: TR-FRET, apparent KD; BodipyFL-BCL6^5-360 titrated to biotinylated SIAH1^SBD in the presence of 2 µM BI-3802. The procedure:
Titrations of BodipyFL-BCL6⁵⁻³⁶⁰ were carried out by mixing 400 nM biotinylated Strep II Avi-tagged SIAH1^SBD, 2 μM compounds or equivalent volume of DMSO, and 4 nM terbium-coupled streptavidin in the same assay buffer. After dispensing the assay mixture, increasing concentration of BodipyFL-BCL6⁵⁻³⁶⁰ was added to the SIAH1 mixture in a […] (7.5 μL each, total 15 μL assay volume). The 520/490 nm ratios were measured in as described above and plotted to calculate the KD^APP values using dose-response analysis standard four parameter log-logistic curves using the dr4pl R package.
For orientation: Time-resolved FRET reads energy transfer from a long-lived donor to a nearby acceptor.

For test [6], the target named is T5, BCL6^5-360 (ITC) (human, UniProt P41182 5-360).
T5 construct: also called BCL6^5-360 protein
As to the kind of experiment: isothermal titration calorimetry, SIAH1^SBD injected into BCL6^5-360. The method, then: as §2

B1: V5SIAH1^C44S (enzyme, UniProt Q8IUQ4 1-282, looked up)
chain: MSRQTATALPTGTSKCPPSQRVPALTGTTASNNDLASLFECPVSFDYVLPPILQCQSGHLVCSNCRPKLTCCPTCRGPLGSIRNLAMEKVANSVLFPCKYASSGCEITLPHTEKADHEELCEFRPYSCPCPGASCKWQGSLDAVMPHLMHQHKSITTLQGEDIVFLATDINLPGAVDWVMMQSCFGFHFMLVLEKQEKYDGHQQFFAIVQLIGTRKQAENFAYRLELNGHRRRLTWEATPRSIHEGIATAIMNSDCLVFDTSIAQLFAENGNLGINVTISMC
notes: Expressed from pLEX_307 in HEK293T Cas9 cells; also called V5SIAH1^44C>S; V5SIAH1^44>S; not shown: V5 tag
B1: the binding result in test [1] is on record as “binds”; in test [2], “no binding”; in test [3], “no binding”.
On to EYSRPTLEVSPNVCHSNIYS (also called V×P-containing polypeptide) [BCL6^241-260 peptide], for which, in test [4], the binding result is “binds”.

B2: biotinylated Strep II Avi-tagged SIAH1^SBD (enzyme, human, UniProt Q8IUQ4 90-282, looked up)
chain: VANSVLFPCKYASSGCEITLPHTEKADHEELCEFRPYSCPCPGASCKWQGSLDAVMPHLMHQHKSITTLQGEDIVFLATDINLPGAVDWVMMQSCFGFHFMLVLEKQEKYDGHQQFFAIVQLIGTRKQAENFAYRLELNGHRRRLTWEATPRSIHEGIATAIMNSDCLVFDTSIAQLFAENGNLGINVTISMC
modifications: biotinylated (Avi tag)
notes: range 90-282; Captured through terbium-coupled streptavidin in TR-FRET; also called BiotinSIAH1^SBD; not shown: N-terminal Strep II-Avi tag
Turning to B2, in test [5], the Kd was found to be 200 nM.
For the molecule B3, the binding result in test [6] is “binds”.
